Experimental data: the supplement of paper PMC10567573

B1: OR10K2 (parent)
chain: SLARLQQLLFVIFLLLYLFTLGTN
B2: ANKRD40 (parent)
chain: SLRENDFIEIELDRQELTYQELLR

Variants of: B1
Test: protein stability index of a GFP-peptide fusion (GPS, HEK-293T) (PSI 1-6); higher = more stable
Conditions: c terminus: a fixed tail appended
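Further: lentivirally expressed fusions sorted by FACS into six bins by GFP to DsRed ratio, PSI derived from sequencing read proportions per bin multiplied by bin number.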

Variant	protein stability index
SLARLQQLLFVIFLLLYLFTLGTL [N24L]	3.23
SLARLQQLLFVIFLLLYLFTLGTF [N24F]	2.87
SLARLQQLLFVIFLLLYLFTLGTW [N24W]	1.99
SLARLQQLLFVIFLLLYLFTLGTA [N24A]	2.11
SLARLCQLLFVIFLLLYLFTLGTN [Q6C]	2.58
SLARLSQLLFVIFLLLYLFTLGTN [Q6S]	2.43
SLARLLQLLFVIFLLLYLFTLGTN [Q6L]	2.97
SLARLGQLLFVIFLLLYLFTLGTN [Q6G]	2.56
SLARLHQLLFVIFLLLYLFTLGTN [Q6H]	2.35
SLARLIQLLFVIFLLLYLFTLGTN [Q6I]	2.84
SLARLVQLLFVIFLLLYLFTLGTN [Q6V]	2.45
SLARLPQLLFVIFLLLYLFTLGTN [Q6P]	1.38
SLARLMQLLFVIFLLLYLFTLGTN [Q6M]	2.94
SLARLNQLLFVIFLLLYLFTLGTN [Q6N]	2.84
SLARLFQLLFVIFLLLYLFTLGTN [Q6F]	2.72
SLARLQQLLFVIFGLLYLFTLGTN [L14G]	2.6
SLARLQQLLFVIFILLYLFTLGTN [L14I]	2.72
SLARLQQLLFVIFHLLYLFTLGTN [L14H]	2.31
SLARLQYLLFVIFLLLYLFTLGTN [Q7Y]	1.66
SLARLQTLLFVIFLLLYLFTLGTN [Q7T]	1.74
SLARLQHLLFVIFLLLYLFTLGTN [Q7H]	1.9
SLARLQILLFVIFLLLYLFTLGTN [Q7I]	1.99
SLARLQPLLFVIFLLLYLFTLGTN [Q7P]	1.9
SLARLQKLLFVIFLLLYLFTLGTN [Q7K]	3.27
SLARLQLLLFVIFLLLYLFTLGTN [Q7L]	1.72
SLARLQVLLFVIFLLLYLFTLGTN [Q7V]	2.1

Variant	protein stability index
SLARLQCLLFVIFLLLYLFTLGTN [Q7C]	2.1
SLARLQRLLFVIFLLLYLFTLGTN [Q7R]	2.45
SLARLQQLLFVIFLLLILFTLGTN [Y17I]	3.43
SLARLQQLLFVIFLLLVLFTLGTN [Y17V]	1.57
SLARLQQLLFVIFLLLWLFTLGTN [Y17W]	2.13
SLAMLQQLLFVIFLLLYLFTLGTN [R4M]	3.67
SLANLQQLLFVIFLLLYLFTLGTN [R4N]	2.73
SLAILQQLLFVIFLLLYLFTLGTN [R4I]	3.36
SLAPLQQLLFVIFLLLYLFTLGTN [R4P]	2.24
SLAALQQLLFVIFLLLYLFTLGTN [R4A]	4.04
SLAELQQLLFVIFLLLYLFTLGTN [R4E]	3.95
SLAWLQQLLFVIFLLLYLFTLGTN [R4W]	2.28
SLAFLQQLLFVIFLLLYLFTLGTN [R4F]	2.36
SLARLQQLLFVIFLLLYLFLLGTN [T20L]	1.5
SLARLQQLLFVIFLLLYLFQLGTN [T20Q]	1.45
SLARLQQLLFVIFLLLYLFILGTN [T20I]	2.11
SLARLQQLLFVIFLLLYLFRLGTN [T20R]	2.2
SLARLQQLLFVIFLLIYLFTLGTN [L16I]	2.15
SLARLQQLLFVIFLLEYLFTLGTN [L16E]	3.61
SLARLQQLLFVIFLLSYLFTLGTN [L16S]	3.14
SLARLQQLLFVIFLLTYLFTLGTN [L16T]	3.42
SLARLQQLLFVIFLLYYLFTLGTN [L16Y]	3.45
SLTRLQQLLFVIFLLLYLFTLGTN [A3T]	1.91
SLNRLQQLLFVIFLLLYLFTLGTN [A3N]	3.31
SLKRLQQLLFVIFLLLYLFTLGTN [A3K]	1.51
SLMRLQQLLFVIFLLLYLFTLGTN [A3M]	1.88

Variant	protein stability index
SLHRLQQLLFVIFLLLYLFTLGTN [A3H]	3.07
SLERLQQLLFVIFLLLYLFTLGTN [A3E]	1.91
YLARLQQLLFVIFLLLYLFTLGTN [S1Y]	3.24
ELARLQQLLFVIFLLLYLFTLGTN [S1E]	2.11
VLARLQQLLFVIFLLLYLFTLGTN [S1V]	2.31
ILARLQQLLFVIFLLLYLFTLGTN [S1I]	2.21
NLARLQQLLFVIFLLLYLFTLGTN [S1N]	2.38
ALARLQQLLFVIFLLLYLFTLGTN [S1A]	2.7
HLARLQQLLFVIFLLLYLFTLGTN [S1H]	2.88
LLARLQQLLFVIFLLLYLFTLGTN [S1L]	3.72
MLARLQQLLFVIFLLLYLFTLGTN [S1M]	3.25
DLARLQQLLFVIFLLLYLFTLGTN [S1D]	1.54
CLARLQQLLFVIFLLLYLFTLGTN [S1C]	2.44
PLARLQQLLFVIFLLLYLFTLGTN [S1P]	2.46
SLARLQQLCFVIFLLLYLFTLGTN [L9C]	3.51
SLARLQQLKFVIFLLLYLFTLGTN [L9K]	3.92
SLARLQQLWFVIFLLLYLFTLGTN [L9W]	2.84
SLARLQQLIFVIFLLLYLFTLGTN [L9I]	2.15
SLARLQQLLFVIFLVLYLFTLGTN [L15V]	1.48
SLARLQQLLFVIFLLLYLFTLNTN [G22N]	3.78
SLARLQQLLFVIFLLLYLFTLHTN [G22H]	2.3
SLARLQQLLFVIFLLLYLFTLWTN [G22W]	2.11
SLARLQQKLFVIFLLLYLFTLGTN [L8K]	3.04
SLARLQQDLFVIFLLLYLFTLGTN [L8D]	2.99
SLARLQQRLFVIFLLLYLFTLGTN [L8R]	3.34
SLARLQQILFVIFLLLYLFTLGTN [L8I]	2.4

Variant	protein stability index
SLARLQQWLFVIFLLLYLFTLGTN [L8W]	2.53
SLARLQQMLFVIFLLLYLFTLGTN [L8M]	3.83
SLARLQQTLFVIFLLLYLFTLGTN [L8T]	1.97
SEARLQQLLFVIFLLLYLFTLGTN [L2E]	2.01
SDARLQQLLFVIFLLLYLFTLGTN [L2D]	2.06
SCARLQQLLFVIFLLLYLFTLGTN [L2C]	2.55
SRARLQQLLFVIFLLLYLFTLGTN [L2R]	2.48
STARLQQLLFVIFLLLYLFTLGTN [L2T]	2.59
SGARLQQLLFVIFLLLYLFTLGTN [L2G]	1.4
SIARLQQLLFVIFLLLYLFTLGTN [L2I]	3.49
SWARLQQLLFVIFLLLYLFTLGTN [L2W]	1.88
SKARLQQLLFVIFLLLYLFTLGTN [L2K]	2.49
SAARLQQLLFVIFLLLYLFTLGTN [L2A]	3.88
SFARLQQLLFVIFLLLYLFTLGTN [L2F]	2.52
SLARLQQLLFVIFLLLYKFTLGTN [L18K]	2.07
SLARLQQLLFVIFLLLYMFTLGTN [L18M]	2.1
SLARLQQLLNVIFLLLYLFTLGTN [F10N]	2.18
SLARLQQLLGVIFLLLYLFTLGTN [F10G]	3.07
SLARLQQLLYVIFLLLYLFTLGTN [F10Y]	2.37
SLARLQQLLFVIFLLLYLFTYGTN [L21Y]	1.62
SLARLQQLLFVIFLLLYLFTIGTN [L21I]	2.08
SLARLQQLLFVIFLLLYLFTVGTN [L21V]	2.08
SLARLQQLLFVIFLLLYLFTFGTN [L21F]	3.52
SLARLQQLLFVIFLLLYLFTSGTN [L21S]	2.34
SLARLQQLLFVIFLLLYLFTCGTN [L21C]	3.39
SLARLQQLLFVIFLLLYLFTNGTN [L21N]	4.16

Variant	protein stability index
SLARLQQLLFVIFLLLYLFTLGSN [T23S]	1.86
SLARLQQLLFVIFLLLYLFTLGRN [T23R]	1.53
SLARLQQLLFVIFLLLYLFTLGCN [T23C]	4.22
SLARLQQLLFVIFLLLYLFTLGHN [T23H]	1.75
SLARWQQLLFVIFLLLYLFTLGTN [L5W]	3.37
SLARMQQLLFVIFLLLYLFTLGTN [L5M]	1.41
SLARGQQLLFVIFLLLYLFTLGTN [L5G]	3.76
SLARDQQLLFVIFLLLYLFTLGTN [L5D]	3.05
SLARAQQLLFVIFLLLYLFTLGTN [L5A]	3.68
SLARRQQLLFVIFLLLYLFTLGTN [L5R]	1.85
SLARTQQLLFVIFLLLYLFTLGTN [L5T]	2.28
SLARPQQLLFVIFLLLYLFTLGTN [L5P]	2.02
SLARIQQLLFVIFLLLYLFTLGTN [L5I]	1.78
SLARLQQLLFVIFLLLYLLTLGTN [F19L]	2.05
SLARLQQLLFVIFLLLYLMTLGTN [F19M]	2.17
SLARLQQLLFVLFLLLYLFTLGTN [I12L]	2.29
SLARLQQLLFTIFLLLYLFTLGTN [V11T]	3.08
SLARLQQLLFYIFLLLYLFTLGTN [V11Y]	2.3
SLARLQQLLFPIFLLLYLFTLGTN [V11P]	2.94
SLARLQQLLFMIFLLLYLFTLGTN [V11M]	3.05
SLARLQQLLFAIFLLLYLFTLGTN [V11A]	1.59
SLARLQQLLFVIWLLLYLFTLGTN [F13W]	3.36
SLARLQQLLFVIKLLLYLFTLGTN [F13K]	1.43
SLARLQQLLFVIGLLLYLFTLGTN [F13G]	1.73
SLARLQQLLFVICLLLYLFTLGTN [F13C]	3.12

Variants of: B2
Test: as above
Conditions: c terminus: a fixed tail appended

Variant	protein stability index
SERENDFIEIELDRQELTYQELLR [L2E]	2.93
SMRENDFIEIELDRQELTYQELLR [L2M]	3.09
SPRENDFIEIELDRQELTYQELLR [L2P]	3.49
SQRENDFIEIELDRQELTYQELLR [L2Q]	3.48
SVRENDFIEIELDRQELTYQELLR [L2V]	3.12
SFRENDFIEIELDRQELTYQELLR [L2F]	2.36
SYRENDFIEIELDRQELTYQELLR [L2Y]	2.68
SKRENDFIEIELDRQELTYQELLR [L2K]	3.01
SDRENDFIEIELDRQELTYQELLR [L2D]	3.6
SGRENDFIEIELDRQELTYQELLR [L2G]	3.02
SARENDFIEIELDRQELTYQELLR [L2A]	3.91
SWRENDFIEIELDRQELTYQELLR [L2W]	2.73
SHRENDFIEIELDRQELTYQELLR [L2H]	3.01
SRRENDFIEIELDRQELTYQELLR [L2R]	2.8
SNRENDFIEIELDRQELTYQELLR [L2N]	2.89
SCRENDFIEIELDRQELTYQELLR [L2C]	2.99
SIRENDFIEIELDRQELTYQELLR [L2I]	2.66
SSRENDFIEIELDRQELTYQELLR [L2S]	3.2
STRENDFIEIELDRQELTYQELLR [L2T]	3
SLEENDFIEIELDRQELTYQELLR [R3E]	2.85

Variant	protein stability index
SLWENDFIEIELDRQELTYQELLR [R3W]	2.26
SLFENDFIEIELDRQELTYQELLR [R3F]	2.37
SLLENDFIEIELDRQELTYQELLR [R3L]	2.29
SLAENDFIEIELDRQELTYQELLR [R3A]	3.29
SLSENDFIEIELDRQELTYQELLR [R3S]	3.54
SLVENDFIEIELDRQELTYQELLR [R3V]	2.44
SLQENDFIEIELDRQELTYQELLR [R3Q]	2.95
SLPENDFIEIELDRQELTYQELLR [R3P]	3.52
SLMENDFIEIELDRQELTYQELLR [R3M]	2.54
SLYENDFIEIELDRQELTYQELLR [R3Y]	2.65
SLHENDFIEIELDRQELTYQELLR [R3H]	3.08
SLDENDFIEIELDRQELTYQELLR [R3D]	2.9
SLGENDFIEIELDRQELTYQELLR [R3G]	3.26
SLTENDFIEIELDRQELTYQELLR [R3T]	2.91
SLCENDFIEIELDRQELTYQELLR [R3C]	3.14
SLIENDFIEIELDRQELTYQELLR [R3I]	2.9
SLKENDFIEIELDRQELTYQELLR [R3K]	3.23
SLNENDFIEIELDRQELTYQELLR [R3N]	3.06
SLRANDFIEIELDRQELTYQELLR [E4A]	2.74
SLRCNDFIEIELDRQELTYQELLR [E4C]	2.16

Variant	protein stability index
GLRENDFIEIELDRQELTYQELLR [S1G]	2.77
YLRENDFIEIELDRQELTYQELLR [S1Y]	2.3
LLRENDFIEIELDRQELTYQELLR [S1L]	2.84
ALRENDFIEIELDRQELTYQELLR [S1A]	2.82
WLRENDFIEIELDRQELTYQELLR [S1W]	2.26
ELRENDFIEIELDRQELTYQELLR [S1E]	3.41
RLRENDFIEIELDRQELTYQELLR [S1R]	3.07
QLRENDFIEIELDRQELTYQELLR [S1Q]	3.44
DLRENDFIEIELDRQELTYQELLR [S1D]	3.12
ILRENDFIEIELDRQELTYQELLR [S1I]	2.34
NLRENDFIEIELDRQELTYQELLR [S1N]	3.31
CLRENDFIEIELDRQELTYQELLR [S1C]	3.07
HLRENDFIEIELDRQELTYQELLR [S1H]	3.26
VLRENDFIEIELDRQELTYQELLR [S1V]	3.17
PLRENDFIEIELDRQELTYQELLR [S1P]	3.26
MLRENDFIEIELDRQELTYQELLR [S1M]	2.66
TLRENDFIEIELDRQELTYQELLR [S1T]	3.38
KLRENDFIEIELDRQELTYQELLR [S1K]	3.23
FLRENDFIEIELDRQELTYQELLR [S1F]	2.29
